Values of other authors, collected in publication PMC9179313.
“And” between values parts separate entries of the source, which are not always exact repeats. Identical values can stand only once.

Target: ICAM1 (Homo sapiens) (UniProt P05362)
Sequence (P05362 28-480): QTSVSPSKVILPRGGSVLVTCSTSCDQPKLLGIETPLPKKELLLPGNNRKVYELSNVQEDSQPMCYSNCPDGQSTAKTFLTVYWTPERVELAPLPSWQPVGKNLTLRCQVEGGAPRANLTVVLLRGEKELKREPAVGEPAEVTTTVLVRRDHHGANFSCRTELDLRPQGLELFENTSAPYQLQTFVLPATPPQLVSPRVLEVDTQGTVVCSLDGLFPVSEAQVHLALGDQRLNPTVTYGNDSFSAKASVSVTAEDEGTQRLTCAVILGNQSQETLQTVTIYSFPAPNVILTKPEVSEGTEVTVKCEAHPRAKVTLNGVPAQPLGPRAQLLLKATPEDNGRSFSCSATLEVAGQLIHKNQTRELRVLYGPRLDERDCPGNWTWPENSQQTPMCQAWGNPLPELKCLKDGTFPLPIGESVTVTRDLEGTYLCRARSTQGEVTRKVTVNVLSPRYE

Sequence of LFA1 (integrin alpha-L beta-2) (P20701 26-1090): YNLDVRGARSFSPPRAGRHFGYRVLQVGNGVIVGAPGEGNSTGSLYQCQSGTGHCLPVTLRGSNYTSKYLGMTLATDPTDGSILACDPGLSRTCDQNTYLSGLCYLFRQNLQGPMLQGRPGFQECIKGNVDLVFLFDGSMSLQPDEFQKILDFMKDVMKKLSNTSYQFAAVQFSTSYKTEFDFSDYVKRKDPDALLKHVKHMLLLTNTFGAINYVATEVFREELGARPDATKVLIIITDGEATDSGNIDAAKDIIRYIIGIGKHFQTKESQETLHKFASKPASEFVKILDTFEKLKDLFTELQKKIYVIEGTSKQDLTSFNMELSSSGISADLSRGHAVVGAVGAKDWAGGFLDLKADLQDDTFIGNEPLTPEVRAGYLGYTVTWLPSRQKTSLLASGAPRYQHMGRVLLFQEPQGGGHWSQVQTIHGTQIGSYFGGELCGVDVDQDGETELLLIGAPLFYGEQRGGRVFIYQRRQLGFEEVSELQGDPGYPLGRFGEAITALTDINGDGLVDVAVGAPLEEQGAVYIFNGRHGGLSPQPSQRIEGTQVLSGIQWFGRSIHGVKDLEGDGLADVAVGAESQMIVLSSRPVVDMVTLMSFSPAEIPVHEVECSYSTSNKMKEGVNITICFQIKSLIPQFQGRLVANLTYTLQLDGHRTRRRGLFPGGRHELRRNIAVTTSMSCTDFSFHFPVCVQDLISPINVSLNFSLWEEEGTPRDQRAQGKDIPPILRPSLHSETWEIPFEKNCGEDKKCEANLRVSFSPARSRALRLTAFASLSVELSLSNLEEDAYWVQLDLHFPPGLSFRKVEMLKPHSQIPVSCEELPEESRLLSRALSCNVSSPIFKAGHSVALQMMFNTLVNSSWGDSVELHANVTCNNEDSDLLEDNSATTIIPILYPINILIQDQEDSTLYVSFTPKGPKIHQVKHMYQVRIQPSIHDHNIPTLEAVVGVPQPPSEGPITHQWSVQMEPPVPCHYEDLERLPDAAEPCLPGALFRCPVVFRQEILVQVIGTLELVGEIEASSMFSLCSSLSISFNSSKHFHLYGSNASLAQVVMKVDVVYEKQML
Sequence of LFA1 (integrin alpha-L beta-2) (P05107 23-700, further chain): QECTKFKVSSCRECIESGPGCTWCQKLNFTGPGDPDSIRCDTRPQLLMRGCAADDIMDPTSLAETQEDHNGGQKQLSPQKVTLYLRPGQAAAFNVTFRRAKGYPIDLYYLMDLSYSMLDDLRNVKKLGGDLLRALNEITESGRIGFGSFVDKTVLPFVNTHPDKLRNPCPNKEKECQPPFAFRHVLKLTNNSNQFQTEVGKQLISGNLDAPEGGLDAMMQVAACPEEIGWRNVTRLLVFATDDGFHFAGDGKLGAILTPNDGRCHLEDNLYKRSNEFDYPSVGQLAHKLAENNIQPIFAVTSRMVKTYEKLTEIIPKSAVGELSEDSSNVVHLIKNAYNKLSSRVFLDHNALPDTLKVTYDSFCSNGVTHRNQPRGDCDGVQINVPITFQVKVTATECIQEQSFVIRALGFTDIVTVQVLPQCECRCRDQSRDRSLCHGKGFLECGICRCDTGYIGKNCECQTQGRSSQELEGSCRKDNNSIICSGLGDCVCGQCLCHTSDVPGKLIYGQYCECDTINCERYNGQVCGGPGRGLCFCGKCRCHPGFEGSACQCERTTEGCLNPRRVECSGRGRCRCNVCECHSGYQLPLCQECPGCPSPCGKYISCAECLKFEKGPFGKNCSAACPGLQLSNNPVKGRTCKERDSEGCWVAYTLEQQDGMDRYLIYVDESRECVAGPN

Kd: 26 µM and 36 µM
Substance: LFA1 (integrin alpha-L beta-2) (from UniProt P20701)
